Here are results for 41 sequences from the nanobody polyreactivity screen of Harvey et al. (2022).

A short description of this data set: yeast display, Sf9 membrane polyspecificity reagent, FACS + sequencing; frameworks hold sequencing errors. An outline of the steps: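 A synthetic nanobody library was expressed on Saccharomyces cerevisiae BJ5465 by galactose induction for 36–48 hours. The library was stained for 1 hour at 4 °C with 10% biotinylated, detergent-solubilized Sf9 membrane reagent and enriched with streptavidin microbeads before FACS. Low and high (top ~1%) gates were set on anti-HA fluorescence for expression and streptavidin fluorescence for reagent binding, and each polyreactivity label reflects the gate of origin.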
Regarding “QVQLVESAGGLVQAGGSLRLSCAASGIIFRYYAMGWYRQAPGKERELVARITSRGGTYYADSVKGRFTISRDNAKNNVYLQMNSLKPEDTAVYYCAASYLLTHGYAYNYWGQGTQVTVSS”, the “polyreactivity (PSR sort gate)” value is listed as “high polyreactivity”.
“QDQLVESGGGLVQAGASLRLSCAASGFIFSYYAMGWYRQAPGKERELVAAITWSGSSTYYADSVKGRFTISRDNAKNTVYLQMNSLKPEDTAVYYCPASSGGFRHYYYTYNYWGQGTQVTVSS”: the “polyreactivity (PSR sort gate)” value is on record as “high polyreactivity”.
In the case of “QVQLVESGGCLVQAGGSLRLSCAASGSIFSLYAMGWYRQAPGKEWEFVASISRSGGITYYADSVKGRFTISRDNAKNTVYLQMNSLKPEDTAVYYCAAVGWVSYRRYDYWGPGTQVTVSS” it was “high polyreactivity”; in that of “QVQLVQSGGGLVQAGGSHRLSCAASGSTFKPYALGWYRQSPGKETELVAASSRGTRTYADSVKGRFTISRDNAKNTVYLQMNSVKPEDTAVYYCAAEWRLTFGYHYEFDYWGQGTQVTVSS”, “low polyreactivity”.
With “QVQLVESGGGLVQAGGSLRLSCAASGSTFTGYAMGWYRQAPGKERELVAAISRSGGSTYYADSVKGRFTISRDNAKNTVYLQMNSLKPEDTAVYYCYVDPSARRYVYWGQGTQVTVSS” the entry was “high polyreactivity”; with “QVQLQESGGGLVQAGGSLRLSCAASGTISDSGLMGWYRQAPGKERELVAGISSGGITNYADSVKGRFTISRDIAKNTVYLQMNSLKPEDTAVYWGQGTQVTVSS”, “low polyreactivity”.
As for “QVQLVESGGGLVQAGGSLRLSCAASGSILWSYAMGWYRQAPGKERELVAAISGSTGSTYYADSVKGRFTISRDNAKNTVYLQMNSLKPEDTAVYYCAAEYYEDYDDYDYWGQGTQVTVSS”, the “polyreactivity (PSR sort gate)” value is “low polyreactivity”.
In the case of “QVQLVESGGGLVQAGGSLRLSCAASGSIFFDYALGWYRQAPGKERELVARITSSDSTNYADSVKGRFTISRDNAKNTVYLQMNSLKPEDTAVYYCNKDSTGDGYDYWGQGTQVTVSS” it was “low polyreactivity”.
In the case of “QDQLVESGGGLVQAGGSLSLSCAASGQTFYQYAMGWYRQAPGKERELVAAISKSAGSTYYADSVKGRFTISRDNAKNTVYLQMNSLKPEDTAVYYCVARVLRLRYDYWGQGTQVSVSS” it was “high polyreactivity”.
In the case of “QVQLVESGGGLVQAGGSLRLSCAASGRTFPYYAMGWYRQAPGKERELVARITSGSGTYYADSVKGRFTISRDNAKNTVYLQMNSLKPEDTAVYYCAAREPGVGYVGHYTGLDYWGQGTQVTVSS” it was “low polyreactivity”; in that of “QVQLVESGGGLVQAGGSLRLSCAASGSIFPPYVMGWYRQAPGKERELVASITTSGGSTYYADSVKGRFTISRDNAKNTVYLQIKSLKPEDTAVYYCAARWYYGGKSAGPGGGYWGQGTQVTVSA”, “low polyreactivity”; in that of “QVQLVESGGGLVQAGGSLRLSCDASGFTLEKNAMGWYRQAPGKERELVADISSTDSTNYADSVKGRFTISRDNAKNTVYIQMNSLKPEDTAVYYCGRYDGPGTEEFDYWGQGTQVTVSS”, “low polyreactivity”.
With “QVQLVESGGGLVQAGGSLRLSCAASGSTFIYYAMGWYRQAPGKERELVASISRSGGSTYYADSVKGRFTISRDNAKNTVYLQMNSLKPEDTAVYYCAAVGWTYEYWEWYDYWGQGTQVTVSS”, the “polyreactivity (PSR sort gate)” value is given as “high polyreactivity”.
On to “QVQLVESWGGLVQAGGSLRLSCAASGSIFYVNDMGWYRQAPGKERELVAAISSTGSTKYADSVKGRFTISRDNAKNTVYLQMNSLKPEDTAVSYCAKEPGHRFEFDYWGQGTQVTVSS”, for which the “polyreactivity (PSR sort gate)” value is “low polyreactivity”.
With “QVQLVESGTGLVQAGGSLRLSCAASGSIFAYYAMGWYRHAPGKERELVAAISSRGGNTYYADSVKGRFTISRDNAKNNVYLQMNSLKPEDTAVYYCAADYQYSYGEYDYWGHGTQVTVSS” the entry was “high polyreactivity”; with “QVQLVESGGGLVQAGGSLRLSCAASGSTFPYYTMGWYRQAPGKERELVAAITWRGGRTYYADSVKGRFTISRDNAKNTVYLQMNSLKPEDTAVYYCAAVTWVHRYSRFHPFVAFDFWGQGTQVTVSS”, “high polyreactivity”.
“QVQLVESGVGLVQAGGSLRLSCAASGRIFGAYAIGWYRQAPRKERELVAAISGSGGRTYYADSVKGRFTISRDSEKNTVYLQMNRLKPEDTAVYYCNKGYVYGHEYWGQGTQVTVSS”: the “polyreactivity (PSR sort gate)” value is listed as “high polyreactivity”.
In the case of “QVQLVESGGGLVQAGGSLRLSSAASGITFYINAMGWYRPAPGKERELVAALSWPRGSTYYADSVKGRFTISRDNAKNTVYLQMNSLKPEDTAVYYCAGVAYFELSGGGLEYGYDYWGQGTQVSVSS” it was “high polyreactivity”; in that of “QVQLLETGRGLVQAGGSLRISCAASGYTFGVYVMGWYRQAPGQERELVAAISGSTYYADSVNGRFKISRDNAKNTVYLQMNSLKPEDTAVYYCAAESFFFSPRTREIFDYWGQGTQVTVSS”, “low polyreactivity”; in that of “QVQLVESGGGLVQAGGSLRLSCAASGITFWYNAMGWYRQAPGKERELVAAISGGGGSTYYADSVKGRFTISRDNAMNTVYLQMNSLKPEDTAVYYCAARQVARVYSGRYGYWGQGTQVTVSS”, “high polyreactivity”.
In the case of “QVQLVESGGGLVQAGGSLLLRCAASGSIFPWNTMGWNRQAPGKERELVARISTSGASTYYADSVKGRFTISRDNAKNTVYLQMNSRKPEDTAVYYGAARDWSHRPRGYDYWGQGTQVTVSS” it was “high polyreactivity”; in that of “QVQLVESGGGLVQAGGSLRLSCAASGSTFSDYAMGWYRPAPGKERELVAAISSDGSTYYADSVKGRFTISRDNANNTVYLQMNILKPEDTAVYYCAKDVILVWPYATGRDYCGQGTQVTVSS”, “low polyreactivity”.
Take “QVQLVESGGGLVQAGGSLRLICAASGIIFLYYAMGWYRQAPGKEWELVAAISSGVSTYYADSVKGRFTISRDNAKNTVYLQLNSLKPEDTAVYYCNADYYQLNSGMYYWGQGTQVTVSS”: the “polyreactivity (PSR sort gate)” value was “low polyreactivity”.
With “QDQLVESGGGLVQAGGSLRLSCAASGRTFYFYAMGWYRQAPGKERELVAAISWTGGITYYADSVKGRFTISRDNAKNTVYLQMNSLKPEDTAVYYCAKKYYKVHKFDYWGQGTQVTVSS” the entry was “low polyreactivity”; with “QVQLVESGGGLVQAGGSLRLSCAASGITFYRYAMGWYRQAPGKERELVAAIRGGGASTYYADSVKGRFTISRDNAKNTVYLQMNSLKPEDTAVYYCAARAARSITNGYWGQGTQVTVSS”, “high polyreactivity”.
With “QVQLVESGGGLVQAGGSLRLSCAASGSIFWYNDMGWYRQAPGKEREFVAAITWDDGSTYYADSVKGRFTISRDNAKNTVYLQMNSLKPEDTAVYYCAAYVWYYDPASGWFITDYDYWGQGTQVTVSS”, the “polyreactivity (PSR sort gate)” value is “high polyreactivity”.
With “QVQLVESGGGLVQAGGSLRLSCAASGLTFRYNAMGWYRQAPGKERELVAAIRTSGGSTYYADSVKGRFTISRDNAKNTVYLQMNSLKPEDTAVYYCAARSKSYYGGYARGYWGQGTQVTVSS” the entry was “high polyreactivity”.
In the case of “QVQLVESGGGLVQAGGSLRLSCAASGFIFSRYAMGCYSPAPGKVIELVAAISSRGGSTYYADSVKGRFTISRDNAKNTVYLQMNSLKPEDTAVYYCAARGPTFGVDYGYWGQGTQVTLSS” it was “high polyreactivity”.
With “QVQLVESGGGLVQAGGSLRLSCAASGRIPVNAMGWYRQAPVKERELVAAISVSGGSTNYADSVKGRFTISRDNAKNTVYLQMNSLKPEDTAVYYCNADPDWWYPYNYWGQGTQVTLSS” the entry was “low polyreactivity”; with “QVQLVESGGGLVQAGGSLRLSCAASGITFSWYAMGWYRQAPGKEREFVATISASGGSTYYADSVKGRFTISRDNAKNTVYLQMNSLKAEDTAVYYCAAVIWYRNGARGTFDYWGQGTQETVSS”, “high polyreactivity”.
Consider “QVQLVESGGGLVQAGGSLRLTCAASGITFTQNAMGWYRQAPGKERELVAAISRSGTITYYADSVKGRFTISRDHAKNTVYLQMNSLKPEDTAVYYCNKLRPQRSWEYDYWGQGTQVTVSS”, for which the “polyreactivity (PSR sort gate)” value was “high polyreactivity”.
With “QVQLVESGGGLVQAGGSLRLSCAASGSTFPGYAMGWYRQAPGKERELVAAISASGGSTYYADSVKGRFTISRDNAKNTVYLQMNSLKPEDTAVYYCAKVLSRGASAHDYWGQGTQVTVSS” the entry was “low polyreactivity”; with “QVQLVESGGGLVQAGGSLRLSCAASGSTFDAYAMGWYRQAPGKERELVAAITNAGSTNYADSVKGRFTISRDNAKNTVYLQMNSLKPEDTAVYYCATDWYHRYLDGRYDYWGQGTQVTVSS”, “low polyreactivity”; with “QVQLVESGGGLVQAGGSLRLSCAASGFNFTAYAMGWYRQAPGKERELVAAISSGGSTNYADSVKGRFTISRDNAKNSVYLQMNSLKPEDTAVYYCAALLRGIEYDYWGQGTQVTVSS”, “high polyreactivity”.
For the sequence “QFQLVESGGGLVQAGGRLRLSCAASGRIFRYSAMGWYRQAPGKERQLVASISSGGSTNYADSVKGRFTISRDNAKNTVYLQMNSLKQEDTAVYYCAARYWVSGFRAGYYWGQGTQVTVSS”, the “polyreactivity (PSR sort gate)” value is “high polyreactivity”.
With “QVHLVESGGGLVQAGGSLRLSCAASGRIFYANARGWYRQAPGKERELVAAISQSGGSTFYADSVKGRFTISRDYAKNTVYLQMNSLKPEDTAVYYCATDYYGPVYDLDYDYWGQGTQVTVSS” the entry was “low polyreactivity”; with “QVQLVESGGGLVQAGGILRLSCAASVRIFGVYAMGWYRQAPGKERELVAAITSGGSTTYADSVKGRFTISRDNAKNNVYLQMNSLKQEDTAVYYCNKEPQPFFLYGYWGQGTQVTVSS”, “low polyreactivity”; with “QVQLVESGGGLVQAGGSLRLRCAASGSTYTVYAMGWYRQAPRKDRELVAAIRDGSSTNYADSVKGRFTISRDNAKNTVYLQRNSLKPEDTAVYYCNAPYPPTGYGDDDYWGQGTQVTVSA”, “low polyreactivity”.
As to “QVQLVESGGGLVQAGGSLRLTCAASGRIFWINDMVWNRQAPGKESELVAAIRSIGGSTYYADSVKGRFRISRDNAKNTVYLQMNSLKPEDTSVYYCAAKSSPKFRGRYYYWGQGTQVTVSS”, the “polyreactivity (PSR sort gate)” value is given as “low polyreactivity”.
In the case of “QVQLVESGGGLVQAGGSLRLSCAASGSTFPANAMGWYRPAPGKERELVAAISSVGSTNYADSVKGRFTISRDNAKNTVYLQMNSLKPEDTAVYYCATQPTWYTVGDLDYWGQGTQVTVSS” it was “low polyreactivity”; in that of “QVQLVESGGGLVQAGGSLRLSCAASGSIFPYYAMGWYRQAPGKETELVAVINSGGITNYADSVKGRFTISRDNAKNTVYLQMNSLKPEDTAVYYCAAAASPLTRHLYWGQGTQVTVSS”, “low polyreactivity”.
